Target: proteasome αΔ12-subunit (Thermoplasma acidophilum, UniProt P25156 13-233)
Test: native gel or EMSA

proteasome αΔ12-subunit, sequence (P25156 13-233, stated change not applied): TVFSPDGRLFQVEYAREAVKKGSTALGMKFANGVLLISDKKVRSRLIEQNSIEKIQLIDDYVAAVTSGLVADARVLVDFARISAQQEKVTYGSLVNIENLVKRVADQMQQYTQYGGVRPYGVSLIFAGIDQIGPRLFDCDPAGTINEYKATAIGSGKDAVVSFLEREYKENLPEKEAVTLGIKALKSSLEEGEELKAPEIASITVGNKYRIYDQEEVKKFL

B1: proteasome β-subunit (natural protein)
chain: TTTVGITLKDAVIMATERRVTMENFIMHKNGKKLFQIDTYTGMTIAGLVGDAQVLVRYMKAELELYRLQRRVNMPIEAVATLLSNMLNQVKYMPYMVQLLVGGIDTAPHVFSIDAAGGSVEDIYASTGSGSPFVYGVLESQYSEKMTVDEGVDLVIRAISAAKQRDSASGGMIDVAVITRKDGYVQLPTDQIESRIRKLGLIL
  binding result: binds

From article PMC7612055 (Nature chemistry, 2021)
